Data on three molecules can be found in US12636342B2, “TARS derived from Akkermansia muciniphila or fragment thereof, and use thereof” (KOREA RESEARCH INSTITUTE OF BIOSCIENCE AND BIOTECHNOLOGY, priority 2020, dated 2026).

Data set [1] relates to BMDMs. Kind of data set: Global gene expression profiling (RNA sequencing) of BMDMs. Format: cell-based, mouse. The protocol:
(A-E) Global gene expression analysis. Total mRNA from BMDMs treated with either AmTARS (0.5 μM) or Pam3 (10 ng ml-1) for 1 or 3 h was isolated and analyzed by RNA sequencing (A). Principle components analysis (PCA) of the gene expression profiles for each sample (B). Hierarchical clustering of gene expression profiles from each sample identified cluster 3 and 4 (C). Gene set enrichment analysis (GSEA) of clusters 3 and 4 with respect to terms related to inflammation (D). […] (F) Overview of the experimental procedures for zebrafish. The yolk of Tg (NFκB:EGFP) transgenic zebrafish larvae (3 dpf) was injected with PBS or AmTARS. Injected larvae were treated at 3 and 5 dpf with 0.5% DSS for 24 h, with a washing period with fresh water for 24 h in between. Sample collection and analysis of Tg (NFκB:EGFP)-based EGFP intensity were conducted at 6 dpf. (G) Representative confocal images showing NF-κB signaling in the mid-distal intestines of PBS- or AmTARS-injected larvae with or without DSS treatment. White dashed lines denote the boundaries of the intestines (based on merged DIC bright field images). (H) Bar graph comparing the fluorescence intensity of the mid-distal intestines of PBS- or AmTARS-injected larvae treated (or not) with DSS (n=32 per PBS group and n=35 per DSS group). (I) Schematic model of the role of AmTARS in maintaining immune homeostasis via TLR2-mediated anti-inflammatory signaling pathways. Data shown in (A-C) are representative and repeated twice. Data shown in (H) are representative of three independent experiments, each similar results (mean±SEM). P-values were calculated by unpaired and two-tailed Student's t-test.
We next performed global gene expression profiling of BMDMs treated with AmTARS or Pam3 for 1 or 3 h (FIG. 32A). […] Subsets of genes showing different expression patterns between AmTARS and Pam3 were classified into six clusters by hierarchical clustering analysis (FIGS. 33A and 33B). The gene expression pattern at 3 h was particularly different for clusters 3 and 4 (FIGS. 32C, 33A, and 33B). […]

Data set [2] concerns BMDMs. The experiment in a line: Immunoblotting of AmTARS/TLR2-induced signaling molecules in BMDMs. Format: cell-based, mouse. The conditions noted are these: BMDMs stimulated for 30 min, 0.5 μM. The protocol: (A and B) Analysis of key molecules that inhibit the MAPK and PI3K/AKT signaling pathways. IL-10 produced by BMDMs pre-treated with inhibitors of ERK (PD98059, […]), p38 (SB203580, […]), MSK1/2 (SB747651A, 10 μM), CREB (666-15, 1 μM), PI3K (Wortmannin, 10 μM), and AKT1/2 (AKT1/2, 10 μM) for 1 h before treatment with either PBS or AmTARS for 24 h (n=6 per group) (A). Flow cytometry analysis of M2 macrophages in BMDMs pre-treated for 1 h with the indicated kinase inhibitors, before treatment with either PBS or AmTARS for 24 h (n=3 per group) (B). (C and D) Western blot analysis of MAPK signaling molecules in lysates of BMDMs (C) or THP1 cells (D) treated for different times with 0.5 μM AmTARS. (E) Western blot analysis of lysates of BMDMs pre-treated with α-IgG (Isotype, 1 μg ml-1) or α-TLR2 (1 μg ml-1) for 1 h before treatment with PBS, AmTARS (0.5 μM), or Pam3 (0.5 μM) for 30 min. (F and G) Western blot analysis of PI3K/AKT signaling molecules in lysates of BMDMs (F) or THP1 cells (G) treated with 0.5 μM AmTARS. (H) AmTARS activates both TLR2/1- and TLR2/6-mediated signaling. Activation of AKT, ERK, and CREB was measured by western blot analysis of lysates of THP1 cells pre-treated with α-IgG, α-TLR1, α-TLR2, or α-TLR6 (1 μg ml-1) for 1 h before treatment for 30 min with PBS or AmTARS (0.5 µM). Data shown in (A and B) are representative of three independent experiments, each with similar results (mean±SEM). P-values were calculated using an unpaired two-tailed Student's t-test. Data shown in (C-H) are representative and repeated at least three times.
Subsequently, we conducted immunoblotting assays to measure the time-dependent activation of AmTARS/TLR2-induced signaling molecules in both BMDMs and THP1 cells. AmTARS rapidly activated ERK, p38, and MSK1/2 within 15 min and, subsequently, phosphorylation of CREB at Ser133 (which is essential for IL-10 production) within 30 min in BMDMs (FIG. 31C) and THP1 cells (FIG. 31D). We then compared AmTARS-triggered TLR2 signaling with typical ligand-triggered signaling using Pam3CSK4 (the synthetic canonical TLR2/1 agonist, referred to hereafter as Pam3) in BMDMs stimulated for 30 min. […] By contrast, activation of NF-κB was greater in Pam3-treated BMDMs than in AmTARS-treated BMDMs (FIG. 31E).
For orientation: In western blotting, separated proteins are transferred to a membrane and probed.

Data set [3] can be described thus: Aminoacylation reaction (malachite green phosphate assay). Format: biochemical. The conditions noted are these: L-threonine, ATP, 30 min, free Pi at 620 nm. The protocol:
TARS is an […] involved in protein synthesis, and the domain and site involved in its function are well known. The constructed deletion mutants were confirmed to have deletions of parts irrelevant to the function, but the aminoacylation reaction experiment was conducted to determine whether the deletion mutants performed the intrinsic functions thereof appropriately.
Specifically, a 2× reaction solution (100 mM Tris-HCl (pH 7.5), 20 mM MgCl2, 200 mM NaCl, 200 mM KCl, 2 mM DTT, 500 μM ATP, and 5 mM L-threonine) was prepared, and 25 μL of a reaction solution, 20 μL of distilled water, and 5 μL of protein were added to make a final 50 μL volume, followed by incubation for 30 min. Thereafter, a reaction was conducted using a malachite green phosphate assay kit (Bioassay Systems) for 30 min, and the free monophosphate group (Pi) was measured at a wavelength of 620 nm.

A further data set deals with Raw 264.7 cells. The experiment in a line: ELISA of immune cytokine secretion in LPS-treated Raw 264.7 cells. Format: cell-based, mouse. The conditions noted are these: Raw 264.7, LPS, 24 h. As to the method:
Next, to determine whether the regulation of immune cytokine secretion by AmTARS in an inflammatory environment was induced by the two functional sites, the mouse-derived immune cell Raw 264.7 cells were treated with LPS to induce an immune response by the method as in Example 3, and treated with AmTARS, ΔU1AmTARS, and ΔU2AmTARS for 24 h separately to obtain cell cultures. The obtained cell cultures were analyzed for Immune cytokine secretion by way of the same method as in Example 2.
Background: In an ELISA, binding on a coated surface is turned into a signal by an enzyme label.

For data set [4], the system named is mouse bone marrow-derived macrophages (BMDMs). Kind of data set: ELISA of immune cytokine secretion in BMDMs under normal conditions. Conditions: normal (non-inflammatory) conditions, 24 h. Format: cell-based. As to the method:
Specifically, mouse bone marrow-derived macrophages (BMDMs) as mouse-derived immune cells were extracted from the mouse thighbone and shinbone, and then cultured in DMEM containing 10% fetal bovine serum (FBS) and antibiotics. Human macrophages (THP1) as human-derived immune cells were cultured in RPMI media containing 10% FBS and antibiotics.
The cultured cells were treated with AmTARS at 0.1 μM, 0.2 μM, and 0.5 μM for 24 h to obtain cell cultures. For cell removal, the media were centrifuged at 500×g for 10 min to obtain supernatants, which were then analyzed using an ELISA set (mouse interleukin (IL)-6, mouse IL-10, mouse tumor necrosis factor (TNF)-α, human IL-6, human IL-10, human TNF-α; BD Biosciences) to investigate the secretion of mouse- and human-derived immune cytokines. […]

In data set [5] the test system is mouse model of dextran sulfate sodium (DSS)-induced colitis. Kind of data set: DSS-induced colitis (inflammatory bowel disease) mouse model, intraperitoneal administration. Format: in vivo. Conditions: inflammatory bowel disease mouse model; for distribution of B cells in the colon: normal mice. As to the method: We evaluated the anti-inflammatory function of AmTARS in a mouse model of dextran sulfate sodium (DSS)-induced colitis. First, we assessed dose-dependent responses (i.e., changes in body weight and colon length) to intraperitoneal (i.p.) administration of AmTARS (0.05-0.4 mg/kg) once every other day for 10 days (FIG. 10A).
The disease activity score was calculated by adding up scores ranging from 0 to 4 points for each item of bloody stool, diarrhea, and weight loss, and the epithelial damage score was calculated by assigning 0 to 4 points according to the degree of colon tissue damage.
Next, to measure IgA, mouse feces were collected and diluted in PBS containing a protein inhibitor, and then a supernatant with impurities removed was obtained, and 100 μL was placed in each well of a 96-well plate to perform protein coating at 4° C. for 2 h. The plate was washed three times with a washing solution (50 mM Tris, 0.2% in PBS) and then incubated with 100 μL of blocking solution at room temperature for 1-2 h, followed by washing. HRP conjugated IgA antibody (1:30000) was added and then incubated at room temperature for 1 h, followed by washing. Thereafter, 100 μL of a substrate solution was added, followed by incubation for 30 min, and then 50 μL of a stop solution was added, followed by measurement at 405-450 nm by an ELISA reader. […]

“Also recorded” adds a separate entry of the source.

In the case of Pam3CSK4, the “transcription factors associated with up-regulated genes” value in the data set on BMDMs [1] (GSEA (Enrichr)) was “up-regulation of inflammation-related transcription factors such as NF-κB, RELA, and TFAP2A”. The “gene set enrichment analysis, inflammatory response-related genes” value in the data set with BMDMs [1] (Pam3 compared with AmTARS) is “significant induction of inflammatory response-related genes”. Moreover, in the data set with BMDMs [2], the “activation of NF-κB, Pam3 versus AmTARS” value is recorded as “greater”.

B1: ΔU2AmTARS: AmTARS mutant with deletion of unique region U2 (residues 290-312); construct SEQ ID NO 8 (protein)
chain: MSEHKERKTLEERQQMSDLERLRHSCAHVLATAICRLWPDAQLAGGPAVDNGFYYDVELDHRISTEDFERIEEEMKKVVKENQVFQKEVISRADAMKMAESGELGALGPRSEPSRFKIDLLNDIPEDEEISLYRNGDFTDLCAGPHVGRTGNCKAFKIMSVASAFYKGDKNRPMLQRIYGTCFPNRTQLDEHLERLEEARRRDHRKLGRELGLFCIDESVGQGLILWKPKGALIRRSLQDFITEELDKLGYSQVYTPNIGKLDLYRTSGHFPYYQESQYAPIPERDAMEYMLKPMNCPHHIKIYANDAHSYRDLPVRLAEFGTVYRWEQSGELGGMTRVRGFTQDDAHIFCTPDQLAGEIRQCLGIVKTIFGTLGMTDYRVRLSMRDPESDKYVGSPENWDKAEQALREAAEWLGADYSEEAGEAAFYGPKIDFIVRDAIGREWQLGTVQVDYNLPERFDLHYTGADNKPHRPVMVHRAPFGSMERFTGLLIEHFEGKFPTWLSPEQVRVLPISDKVTDVAAAHRTALAARGVRVTVDETPDKIGAKIRNARLDRVPYMLVLGQREAEDGTVSVRHRDKGDLGAMPFEQFADLVAREIAERHISPVI
modifications: misc_feature 1..1824 Akkermansia muciniphila TARS_del_Functional region 2
Take B1: the “aminoacylation reaction / enzymatic activity” value in data set [3] is “an aminoacylation reaction was shown; also recorded: Neither mutant protein was different from the wild-type”. For the same molecule, in the data set on Raw 264.7 cells, the “secretion of IL-6” value is reported as “no effect”, the “secretion of IL-10” value is on record as “no effect” and the “secretion of TNF-α” value was “no effect”. Moreover, the “secretion/production of IL-10” value in data set [4] was “abolished the IL-10 production”. In data set [5], the “amount of IgG increased by an inflammatory bowel disease” value is reported as “did not show an effect of reducing the amount of IgG” and the “distribution of B cells in the colon” value is “reduced the efficacy of increasing B cells in the colon”.

B2: ΔU1AmTARS: AmTARS mutant with deletion of unique region U1 (residues 99-113); construct SEQ ID NO 7 (protein)
chain: MSEHKERKTLEERQQMSDLERLRHSCAHVLATAICRLWPDAQLAGGPAVDNGFYYDVELDHRISTEDFERIEEEMKKVVKENQVFQKEVISRADAMKMSRFKIDLLNDIPEDEEISLYRNGDFTDLCAGPHVGRTGNCKAFKIMSVASAFYKGDKNRPMLQRIYGTCFPNRTQLDEHLERLEEARRRDHRKLGRELGLFCIDESVGQGLILWKPKGALIRRSLQDFITEELDKLGYSQVYTPNIGKLDLYRTSGHFPYYQESQYAPIPERDAMEKLSQEGASCAELFNGLATGTIEGYMLKPMNCPHHIKIYANDAHSYRDLPVRLAEFGTVYRWEQSGELGGMTRVRGFTQDDAHIFCTPDQLAGEIRQCLGIVKTIFGTLGMTDYRVRLSMRDPESDKYVGSPENWDKAEQALREAAEWLGADYSEEAGEAAFYGPKIDFIVRDAIGREWQLGTVQVDYNLPERFDLHYTGADNKPHRPVMVHRAPFGSMERFTGLLIEHFEGKFPTWLSPEQVRVLPISDKVTDVAAAHRTALAARGVRVTVDETPDKIGAKIRNARLDRVPYMLVLGQREAEDGTVSVRHRDKGDLGAMPFEQFADLVAREIAERHISPVI
modifications: misc_feature 1..1848 Akkermansia muciniphila TARS_del_Functional region 1
As for B2, the “aminoacylation reaction / enzymatic activity” value in data set [3] is reported as “an aminoacylation reaction was shown; also recorded: Neither mutant protein was different from the wild-type”. In addition, in the data set on Raw 264.7 cells, the “secretion of IL-6” value is “no effect”, the “secretion of IL-10” value was “no effect” and the “secretion of TNF-α” value was “no effect”. For the same molecule, the “secretion/production of IL-10” value in data set [4] is “abolished the IL-10 production”. Also, in data set [5], the “amount of IgG increased by an inflammatory bowel disease” value is “did not show an effect of reducing the amount of IgG” and the “distribution of B cells in the colon” value is reported as “reduced the efficacy of increasing B cells in the colon”.
